From patent US20090004190A1, “Rage Fusion Proteins And Methods Of Use” (priority 2006, published 2009) come the findings set out here.

This test deals with Fc receptor on THP-1 cells. Put plainly: cell-based or functional assay.

With “human IgG1 (heat aggregated, coated on wells) (antibody)”, the TNF secreted by THP-1 cells in wells coated with 10 µg/well heat aggregated protein (ELISA, 24 h) was greater than 40 ng/well.
